The text below walks through data of paper PMC9355583, “Validation of the solution structure of dimerization domain of PRC1” (PLoS ONE, 2022).

The data set concerns the molecule itself. Description: cross-linking; PEG5 cross-linker (0.1 M-1 M), protein at 20 nM and 50 nM, 50 mM PBS, 50 mM NaCl, pH 7.0, 25 °C, 30 min, read by SDS-PAGE.

B1: PRC1 dimerization domain (PRC1-DD, aa: 1-65) (domain or fragment, human, UniProt O43663-1 1-65, looked up)
chain: MRRSEVLAEESIVCLQKALNHLREIWELIGIPEDQRLQRTEVVKKHIKELLDMMIAEEESLKERL
notes: Protein Regulator of Cytokinesis 1 (PRC1), human, isoform 1 (NP_003972; full length 620 residues), N-terminal dimerization domain, residues 1-65; Cloned between NdeI and XhoI of pET-21a with a C-terminal His-tag; no cleavage of the tag is described; For NMR the protein was 15N- or 15N/13C-labelled; also called DD WT; PRC-DD; source: E. coli BL21 (DE3) or Rosseta (DE3), purified (His-Trap HP, …)
On to B1, for which the stoichiometry N (in general, the number of molecules, sites or subunits per partner or assembly) came to 2.
